In article doi:10.1101/2023.07.13.548902v1 one finds Km and kcat data, which are given here for one protein.

Substrate in the data set: [H][C@@]1(O[C@H]2[C@H](O)[C@@H](O)[C@H](Oc3ccc([N+](=O)[O-])cc3)O[C@@H]2CO)O[C@H](CO)[C@H](O)[C@H](O)[C@H]1O
Nature of the data set: p-nitrophenol release, Lineweaver-Burk. In kind it is biochemical, Aspergillus fumigatus. The settings on record: 50 °C, 30 min, 25 mM citrate pH 5.0.

B1: AfCel7A (Aspergillus fumigatus Af293) (protein)
chain: QQVGTSQAEVHPSMTWQSCTAGGSCTTNNGKVVIDANWRWVHKVGDYTNCYTGNTWDTTICPDDATCASNCALEGANYESTYGVTASGNSLRLNFVTTSQQKNIGSRLYMMKDDSTYEMFKLLNQEFTFDVDVSNLPCGLNGALYFVAMDADGGMSKYPTNKAGAKYGTGYCDSQCPRDLKFINGQANVEGWQPSSNDANAGTGNHGSCCAEMDIWEANSISTAFTPHPCDTPGQVMCTGDACGGTYSSDRYGGTCDPDGCDFNSFRQGNKTFYGPGMTVDTKSKFTVVTQFITDDGTSSGTLKEIKRFYVQNGKVIPNSESTWTGVSGNSITTEYCTAQKSLFQDQNVFEKHGGLEGMGAALAQGMVLVMSLWDDHSANMLWLDSNYPTTASSTTPGVARGTCDISSGVPADVEANHPDAYVVYSNIKVGPIGSTFNSGGSNPGGGTTTTTTTQPTTTTTTAGNPGGTGVAQHYGQCGGIGWTGPTTCASPYTCQKLNDYYSQCL
As usually defined, the Km is the concentration of substrate that gives half-maximal velocity. For orientation: kcat means the maximal rate divided by the concentration of active sites. On to B1, for which the Km worked out at 128 ± 1 µM and the kcat amounted to 0.08055 ± 0.00033 s⁻¹.
